From paper PMC3281069 come the findings set out here.

The test addresses E2 wild type, E2 subunit (acyltransferase component) of the pyruvate dehydrogenase complex of Geobacillus stearothermophilus (Geobacillus stearothermophilus) (UniProt P11961). Nature of the test: SEC; E2wt on a Superdex200 gel filtration column in Solubility Buffer 2.2 (1x PBS, 50 mM L-glutamine, 50 mM NaCl, 250 mM L-arginine).

Substance “E2 wild type, E2 subunit (acyltransferase component) of the pyruvate dehydrogenase complex of Geobacillus stearothermophilus (from UniProt P11961 1-428) (natural protein)” registered a stoichiometry N of 60.
